According to publication PMC8631942 (eLife, 2021):

Assays:
[1] = target: T1, His10-BTLA^ICD BTLA^FFFY, pre-phosphorylated (human, UniProt Q7Z6A9 190-289, Y226F | Y243F | Y257F, pre-phosphorylated with Fyn; lone tyrosine (Y282) in the ITSM); experiment: SPR; OpenSPR (Nicoya); pre-phosphorylated His10-tagged PD-1 or BTLA ICD immobilised on a Ni sensor chip (about 1500 RU); SH2 injected at 20-1000 nM, 20 μl/min; 20 mM HEPES, 150 mM NaCl, 5 mM imidazole, 0.05% Tween-20, 10% glycerol, pH 7.5; equilibrium analysis (Evaluate EC50, TraceDrawer); conditions: both partners purified
T1 construct: BTLA intracellular domain, human, aa 190-289; triple-tyrosine mutant; Monomeric fraction of the gel filtration was used; also called BTLA-ITSM; source: E. coli (pET28A), purified (Ni-NTA, gel filtration); phosphorylated with purified Fyn; not shown: His10, N-terminal, kept
T1 sequence (looked up): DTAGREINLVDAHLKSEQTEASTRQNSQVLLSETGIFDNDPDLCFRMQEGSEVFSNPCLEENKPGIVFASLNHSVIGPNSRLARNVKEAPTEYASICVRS

[2] = target: T2, His10-PD-1^ICD PD-1^FY, pre-phosphorylated (human, UniProt Q15116 194-288, Y223F, pre-phosphorylated with Fyn; the only tyrosine is in the ITSM (Y248)); experiment: as above; conditions: both partners purified
T2 construct: Monomeric fraction of the gel filtration was used; also called PD-1-ITSM; phosphorylated PD-1-ITSM; source: E. coli (pET28A), purified (Ni-NTA, gel filtration); phosphorylated with purified Fyn; not shown: His10, N-terminal, kept
T2 sequence (looked up): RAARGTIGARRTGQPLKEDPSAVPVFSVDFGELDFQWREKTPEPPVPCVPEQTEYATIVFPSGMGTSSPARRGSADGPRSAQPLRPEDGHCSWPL

- Kd [1]: 860 nM
- Kd [2]: 1700 nM
B1: SNAP-SHP1-cSH2 (domain or fragment)
chain: WYHGHMSGGQAETLLQAKGEPWTFLVRESLSQPGDFVLSVLSDQPKAGPGSPLRVTHIKVMCEGGRYTVGGLETFDSLTDLVEHFKKTGIEEASGAFVYLRQPY
